From patent US20050272099A1

Biological target: androgen receptor (UniProt P10275)
Assay: cell-based or functional assay

Sequence of UniProt P10275 (P10275 whole entry): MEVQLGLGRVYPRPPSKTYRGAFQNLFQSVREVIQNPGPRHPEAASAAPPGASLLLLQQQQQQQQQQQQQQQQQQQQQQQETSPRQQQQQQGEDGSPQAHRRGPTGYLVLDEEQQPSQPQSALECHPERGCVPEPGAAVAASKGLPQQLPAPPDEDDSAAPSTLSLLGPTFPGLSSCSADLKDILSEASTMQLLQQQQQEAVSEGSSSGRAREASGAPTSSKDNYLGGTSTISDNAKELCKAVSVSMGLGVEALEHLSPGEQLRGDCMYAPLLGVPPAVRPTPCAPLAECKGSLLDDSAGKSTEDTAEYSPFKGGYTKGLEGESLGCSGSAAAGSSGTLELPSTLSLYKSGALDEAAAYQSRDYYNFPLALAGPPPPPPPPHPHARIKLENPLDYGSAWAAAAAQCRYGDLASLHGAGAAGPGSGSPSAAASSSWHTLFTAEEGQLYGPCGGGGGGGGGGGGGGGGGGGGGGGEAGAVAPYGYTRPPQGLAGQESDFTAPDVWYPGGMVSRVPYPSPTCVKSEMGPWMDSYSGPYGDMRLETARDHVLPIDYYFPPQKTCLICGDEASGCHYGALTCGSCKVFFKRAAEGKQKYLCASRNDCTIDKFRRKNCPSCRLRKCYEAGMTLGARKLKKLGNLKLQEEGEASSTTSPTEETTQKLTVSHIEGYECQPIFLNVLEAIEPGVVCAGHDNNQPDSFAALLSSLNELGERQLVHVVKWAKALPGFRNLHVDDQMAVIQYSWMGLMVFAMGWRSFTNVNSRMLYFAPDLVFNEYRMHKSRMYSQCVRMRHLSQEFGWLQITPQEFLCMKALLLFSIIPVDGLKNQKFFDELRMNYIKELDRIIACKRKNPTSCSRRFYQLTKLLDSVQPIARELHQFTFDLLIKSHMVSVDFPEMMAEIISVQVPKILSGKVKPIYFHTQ

Q: For “androgen receptor complex-associated protein (from UniProt Q58WW2 1-860)”, which luciferase activity, AFP promoter (androgen responsive element) reporter in G2 cells, relative to the control reporter with mutated ARE is on record?
A: 3 to 4 fold
